Publication PMC2943577

Tests used:
Assay in all cases: tandem affinity purification with Western blot
[1] = target: TAP-tagged Esa1 (S. cerevisiae) (UniProt Q08649)
[2] = target: TAP-tagged Spt7 (S. cerevisiae) (UniProt P35177)
[3] = target: TAP-tagged Ada2 (S. cerevisiae) (UniProt Q02336)
Chain of UniProt Q02336 (Q02336 whole entry): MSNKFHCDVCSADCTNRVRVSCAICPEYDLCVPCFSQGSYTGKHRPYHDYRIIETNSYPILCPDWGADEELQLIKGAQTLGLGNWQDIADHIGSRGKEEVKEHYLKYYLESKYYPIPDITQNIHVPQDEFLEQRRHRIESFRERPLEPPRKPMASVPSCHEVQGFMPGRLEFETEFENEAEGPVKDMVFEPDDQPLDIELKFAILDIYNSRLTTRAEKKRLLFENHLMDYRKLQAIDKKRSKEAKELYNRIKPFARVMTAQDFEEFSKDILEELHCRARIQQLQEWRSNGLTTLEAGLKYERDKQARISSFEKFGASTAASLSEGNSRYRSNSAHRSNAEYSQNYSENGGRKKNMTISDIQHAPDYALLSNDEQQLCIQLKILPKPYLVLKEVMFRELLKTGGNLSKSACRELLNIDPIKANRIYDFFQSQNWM

Chain of UniProt P35177 (P35177 whole entry): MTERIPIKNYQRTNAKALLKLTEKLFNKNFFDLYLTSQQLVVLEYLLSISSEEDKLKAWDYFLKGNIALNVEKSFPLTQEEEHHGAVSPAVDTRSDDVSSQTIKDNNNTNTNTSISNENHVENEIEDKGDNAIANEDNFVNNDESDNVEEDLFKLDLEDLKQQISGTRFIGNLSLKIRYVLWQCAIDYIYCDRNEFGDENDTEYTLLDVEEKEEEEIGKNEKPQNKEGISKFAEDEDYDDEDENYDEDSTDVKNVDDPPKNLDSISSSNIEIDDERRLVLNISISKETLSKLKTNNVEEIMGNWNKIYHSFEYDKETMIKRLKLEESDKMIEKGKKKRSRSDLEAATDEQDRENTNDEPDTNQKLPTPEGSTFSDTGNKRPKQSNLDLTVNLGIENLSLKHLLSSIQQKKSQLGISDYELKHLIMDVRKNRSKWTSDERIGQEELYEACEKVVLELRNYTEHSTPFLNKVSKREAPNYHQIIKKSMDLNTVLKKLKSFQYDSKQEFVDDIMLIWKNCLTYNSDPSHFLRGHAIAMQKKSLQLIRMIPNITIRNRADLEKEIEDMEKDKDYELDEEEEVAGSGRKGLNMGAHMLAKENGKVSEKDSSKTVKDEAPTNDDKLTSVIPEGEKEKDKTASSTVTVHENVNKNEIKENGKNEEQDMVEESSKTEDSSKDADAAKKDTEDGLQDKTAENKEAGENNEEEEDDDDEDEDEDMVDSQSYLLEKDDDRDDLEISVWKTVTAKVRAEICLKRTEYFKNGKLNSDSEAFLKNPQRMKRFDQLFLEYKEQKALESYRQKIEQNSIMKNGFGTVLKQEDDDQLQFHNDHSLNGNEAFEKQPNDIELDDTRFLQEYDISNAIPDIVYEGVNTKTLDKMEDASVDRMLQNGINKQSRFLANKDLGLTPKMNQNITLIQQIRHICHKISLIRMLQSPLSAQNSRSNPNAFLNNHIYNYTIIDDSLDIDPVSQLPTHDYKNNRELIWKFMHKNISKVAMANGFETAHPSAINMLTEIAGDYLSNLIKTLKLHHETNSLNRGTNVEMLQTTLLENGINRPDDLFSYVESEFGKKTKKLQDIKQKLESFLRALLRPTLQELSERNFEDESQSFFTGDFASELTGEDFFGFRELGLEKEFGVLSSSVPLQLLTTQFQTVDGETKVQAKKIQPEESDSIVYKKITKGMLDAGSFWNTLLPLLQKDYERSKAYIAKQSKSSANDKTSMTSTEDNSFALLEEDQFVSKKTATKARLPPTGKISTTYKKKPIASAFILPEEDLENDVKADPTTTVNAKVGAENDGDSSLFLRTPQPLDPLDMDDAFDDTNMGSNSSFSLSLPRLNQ
Chain of UniProt Q08649 (Q08649 whole entry): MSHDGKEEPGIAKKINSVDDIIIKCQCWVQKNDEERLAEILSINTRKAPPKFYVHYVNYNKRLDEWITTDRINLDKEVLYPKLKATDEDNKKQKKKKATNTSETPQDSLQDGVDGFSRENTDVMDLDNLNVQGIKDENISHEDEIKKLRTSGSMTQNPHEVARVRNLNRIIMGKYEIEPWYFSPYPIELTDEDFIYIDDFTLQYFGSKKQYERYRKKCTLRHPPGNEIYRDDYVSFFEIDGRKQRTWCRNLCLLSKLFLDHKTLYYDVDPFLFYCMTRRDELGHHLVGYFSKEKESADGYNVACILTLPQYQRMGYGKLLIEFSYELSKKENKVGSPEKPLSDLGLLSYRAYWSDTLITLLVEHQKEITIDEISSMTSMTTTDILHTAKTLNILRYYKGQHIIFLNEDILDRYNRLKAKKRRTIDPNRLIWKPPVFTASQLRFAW

- amount co-purifying, percent of that found for wild-type Tra1 [1]: < 5%
- amount co-purifying, percent of that found for wild-type Tra1 [2]: < 5%
- interaction against wild-type Tra1, percent (reduced to or by is not clear) [3]: 70%
Substance: myc9-Tra1-G3745, P38811 1-3744
